In patent US20050182242A1, “Global analysis of protein activities using proteome chips” (priority 2001, published 2005) one finds calmodulin binding data, which are given here for two molecules.

In the assay the target is T1, calmodulin (Homo sapiens, UniProt P0DP23).
T1 construct: purchased CalBiochem, USA
The experiment in a line: Yeast proteome chip probed with biotinylated calmodulin. The assay is classed as binding. Conditions: biotinylated calmodulin in the presence of calcium. The text has this:
To test for protein-protein interactions, the yeast proteome was probed with calmodulin (11). Calmodulin is a highly conserved calcium-binding protein involved in many calcium-regulated cellular processes and has many known physical partners (Hook et al., 2001, Annu. Rev. Pharmacol. Toxicol. 41:471). The calmodulin probe was biotinylated, and bound probe was detected using Cy3-labeled streptavidin. As a control, the yeast proteome was probed with Cy3-labeled streptavidin alone.
Generally, protein-protein interactions can be assayed as follows. Blocked proteome chips are washed three to five times in PBS buffer, and the extra liquid on the glass surface is removed by tapping the slides vertically on a KIMWIPE™. 200 ∞l of biotinylated protein probe is added to the proteome chip and immediately covered by a hydrophobic plastic cover slip (GRACE BIO-LABS™, USA). After trapped air bubbles are removed, the chip is incubated in a humidity chamber at room temperature (RT) for one hour. To remove the cover slip, the chip is immersed into large volume of PBS buffer (>50 ml), and the slip should float away. The chip is then moved to a second PBS bath (>50 ml) and washed 3×5 min with shaking at RT. After removing extra liquid on the surface of the chip, at least 150 μl of Cy3- or Cy5-conjugated streptavidin (PIERCE™, USA; 1:2000 to 1:4000 dilution) is added to the surface and covered by a hydrophobic plastic cover slip (GRACE BIO-LABS™, USA). The chip is incubated for greater than 30 min in the dark at RT. The chip is then washed as described above. To completely remove the liquid on the chip, the chip is spun to dryness at 1500-2000 rpm for 5-10 min at RT.
• 1. S. Fields, Y. Kohara, D. J. Lockhart, Proc. Natl. Acad. Sci. 96, 8825 (1999); A. Goffeau et al., Science 274, 563 (1996). • 2 P. Ross-Macdonald et al., Nature 402, 413 (1999); J. L., DeRisi, V. R. Iyer, P. O. Brown, Science 278, 680 (1997); E. A. Winzeler et al., Science 285, 901 (1999). P. Uetz et al., Nature 403, 623 (2000); T. Ito et al., Proc. Natl. Acad. Sci. USA. 97, 1143 (2000) • 3 H. Zhu, M. Snyder, Curr. Opin. Chem. Biol. 5, 40 (2001). • 4 M. R. Martzen et al., Science 286, 1153 (1999). • 5 H. Zhu et al., Nat. Genet. 26, 283 (2000). • 6 G. MacBeath, S. L. Schreiber, Science 289, 1760 (2000). • 7 A. Caveman, J. Cell Sci. 113, 3543 (2000). • 8 P. Arenkov et al., Anal. Biochem 278, 123 (2000). • 9 D. A. Mitchell, T. K. Marshall, R. J. Deschenes, Yeast 9, 715 (1993). The expression vector pEGH was created by inserting an RGS-HisX6 epitope tag between the GST gene and the polycloning site of pEG(KG). The yeast ORFs were cloned using the strategy described previously (5), except every step was done in a 96-well format. Plasmid DNAs confirmed by DNA sequencing were reintroduced into both yeast (Y258) and E. coli (DH5a). […] 0.1 mM calcium was present in buffers in all subsequent steps. The chip was washed three times with PBS at RT. Cy3-conjugated streptavidin (Jackson IR, USA) (1:5000 dilution) was added to the chip and incubated for 30 min at RT. After extensive washing, the chip was spun dry and scanned using a microarray scanner; the data was subsequently acquired with the GENEPIX™ array densitometry software (Axon, USA). • 12 S. S. Hook, A. R. Means, Annu. Rev. […]

B1: MY04: yeast class V myosin heavy chain, GST-HisX6 fusion (protein, UniProt P32492 1-1471, looked up)
Myosin-4: MSFEVGTKCWYPHKEQGWIGGEVTKNDFFEGTFHLELKLEDGETVSIETNSFENDDDHPTLPVLRNPPILESTDDLTTLSYLNEPAVLHAIKKRYMNGQIYTYSGIVLIAANPFDKVDHLYSREMIQNYSSKRKDELEPHLFAIAEEAYRFMVHEKANQTVVVSGESGAGKTVSAKYIMRYFASVQESNNREGEVEMSQIESQILATNPIMEAFGNAKTTRNDNSSRFGKYLQILFDENTTIRGSKIRTYLLEKSRLVYQPETERNYHIFYQILEGLPEPVKQELHLSSPKDYHYTNQGGQPNIAGIDEAREYKITTDALSLVGINHETQLGIFKILAGLLHIGNIEMKMTRNDASLSSEEQNLQIACELLGIDPFNFAKWIVKKQIVTRSEKIVTNLNYNQALIARDSVAKFIYSTLFDWLVDNINKTLYDPELDQQDHVFSFIGILDIYGFEHFEKNSFEQFCINYANEKLQQEFNQHVFKLEQEEYVKEEIEWSFIEFSDNQPCIDLIENKLGILSLLDEESRLPSGSDESWASKLYSAFNKPPSNEVFSKPRFGQTKFIVSHYAVDVEYEVEGFIEKNRDSVSLGHLDVFKATTNPIFKQILDNRELRSDDAPEEQNTEKKIMIPARLSQKKPTLGSMFKKSLGELMAIINSTNVHYIRCIKPNSEKKPWEFDNLMVLSQLRACGVLETIRISCAGFPSRWTFDEFVQRYFLLTDYSLWSGILYNPDLPKEAIVNFCQSILDATISDSAKYQIGNTKIFFKAGMLAFLEKLRTNKMNEICIIIQKKIRARYYRLQYLQTMESIKKCQSQIRSLLVRTRVDHELKTRAAILLQTNIRALWKREYYRAAIGQIIKLQCTCKRKLILDSVNRKFMLMAAVIIQSYIRSYGHKTDYRTLKRSSILVQSAMRMQLARRRYIVLQKEVEERNIRASYGIGLLEEAIEFKNSFILNLEMLNDSYTRLTQLLQGDLSNIPSKQRQEYETIVNGYNDKISKLKTLQVEIMNTLNKKNALKERKKKQSSLIQSHMQSLAAIKGNKPSRLSDEVKSMKQELAFIENVIAQDFTTTYSANKNDKVKGLGIAGQQVKPKLVNVIRRESGNPDLLELLMDLNCYTLEVTEGYLKKVNVTEVNGDNVLGPIHVITTVVSSLVRNGLLIQSSKFISKVLLTVESIVMSLPKDETMLGGIFWLSNLSRLPAFAANQKTLYEANGGDEKDKLTLIYLNDLENETLKVFDKIYSTWLVKFMKHASAHIEIFDMVLNEKLFKNSGDEKFAKLFTFLNEFDAVLCKFQVVDSMHTKIFNDTLKYLNVMLFNDLITKCPALNWKYGYEVDRNIERLVSWFEPRIEDVRPNLIQIIQAVKILQLKISNLNEFKLLFDFWYALNPAQIQAILLKYKPANKGEAGVPNEILNYLANVIKRENLSLPGKMEIMLSAQFDSAKNHLRYDTSAITQNSNTEGLATVSKIIKLDRK
modifications: GST-HisX6 tag
notes: yeast class V myosin heavy chain, GST-HisX6 fusion
Take B1: the calmodulin binding result is reported as “identified”.

B2: CMK1: yeast calcium/calmodulin-dependent serine/threonine protein kinase, GST-HisX6 fusion (protein)
chain: MDDKVSEKESSPKQTEEDSEGKMAHVQPASYVNKKKYVFGKTLGAGTFGVVRQAKNTETGEDVAVKILIKKALKGNKVQLEALYDELDILQRLHHPNIVAFKDWFESKDKFYIITQLAKGGELFDRILKKGKFTEEDAVRILVEILSAVKYMHSQNIVHRDLKPENLLYIDKSDESPLVVADFGIAKRLKSDEELLYKPAGSLGYVAPEVLTQDGHGKPCDIWSIGVITYTLLCGYSAFRAERVQDFLDECTTGEYPVKFHRPYWDSVSNKAKQFILKALNLDPSKRPTAAELLEDPWIICTELKTHNLLPGLKEGLDARQKFRNSVERVRLNMKIQKLRDLYLEQTESDSDFDEGSQANGSVPPLKATDTSQLSKKLSEEEQSKLKSELTSKAFAQLVNTVLAEKEKFLNINRVCSSDSDLPGSDIKSLDEAKEKPEGKDTKTEE
modifications: left off: a dimerising Fc or GST
notes: yeast calcium/calmodulin-dependent serine/threonine protein kinase, GST-HisX6 fusion
With B2, the calmodulin binding entry is listed as “identified”.
